The text below walks through data of PMC9098913, “In vitro reconstitution of Escherichia coli divisome activation” (Nature Communications, 2022).

Data set [1] in a line: SEC-MALS oligomeric state of FtsA in solution. In kind it is physicochemical. The protocol: Light scattering was recorded on a miniDAWN light scattering device (Wyatt). Changes in the refractive index were used to define the peak area, which was used to obtain the molecular mass. The analysis of the data was performed with the ASTRA software (Wyatt).
On the technique in general: SEC sorts molecules by how far they enter the pores of the column.

A further data set relates to FtsZ. The conditions noted are these: for FtsZ autocorrelation T: mean; for Autocorrelation Decay Tau: Fig. S2i, + FtsN.

Like-named read-outs stand apart in the source and are kept apart here.
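For Autocorrelation Decay Tau in this document: FtsZ filament patterns imaged by time-lapse TIRF microscopy, one frame per 2 s, with ATP and GTP, Pearson correlation of first frame versus later frames, monoexponential fit, slower decay means persistent structures.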
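For FtsZ autocorrelation T in this document: FtsZ filament patterns imaged by time-lapse TIRF microscopy, one frame per 2 s, with ATP and GTP, Pearson correlation of first frame versus later frames, monoexponential fit, slower decay means persistent structures.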
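For FtsZ autocorrelation in this document: FtsZ filament patterns imaged by time-lapse TIRF microscopy, one frame per 2 s, with ATP and GTP, Pearson correlation of first frame versus later frames, monoexponential fit, slower decay means persistent structures.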

Description for FtsZ: Additionally, the reaction chamber contained 4 mM ATP and 4 mM GTP, as well as a scavenging system to minimize photobleaching effects: 30 mM d-glucose, 0.050 mg ml^−1 Glucose Oxidase, 0.016 mg ml^−1 Catalase, 1 mM DTT and 1 mM Trolox. Prior addition of all components a corresponding buffer volume was removed from the chamber to obtain a total reaction volume of 100 µl. The dynamic protein pattern was monitored by time-lapse TIRF microscopy at one frame per 2 s and 50 ms exposure time.
To measure reorganization dynamics of FtsZ filaments, we used a temporal correlation analysis based on the Image CorrelationJ 1o plugin. We quantified the PCC between the first frame to subsequent frames with increasing time lag (∆t). The decrease in the PCC was plotted against ∆t to obtain autocorrelation curves. Slower decay indicates more persistent structures. The rates of decay were extracted by fitting monoexponential decay to the autocorrelation curves y=a⋅e^−b⋅t+k , where a is the starting point, b is the decay rate and k is the final offset. The half time of the monoexponential decay was calculated via the decay rate.

In the case of “FtsA WT: wild-type E. coli actin-homologue FtsA, membrane anchor of FtsZ”, in data set [1], the “oligomeric state in solution” value is “monomeric in solution”. For the same molecule, the FtsZ autocorrelation in the data set with FtsZ (0.1 µM FtsA, Exp. 1) came out at 103.16 s; in the data set on FtsZ (0.1µM FtsA, Exp. 2), 95.06 s; in the data set with FtsZ (0.2 µM FtsA, Exp. 1), 137.57 s; in the data set on FtsZ (0.2µM FtsA, Exp. 2), 43.74 s; with FtsZ (0.4 µM FtsA, Exp. 1), 70.56 s; in the data set with FtsZ (0.4µM FtsA, Exp. 2), 64.54 s. The FtsZ autocorrelation in the data set on FtsZ (0.8 µM FtsA, Exp. 1) turned out to be 56.36 s; with FtsZ (0.8µM FtsA, Exp. 2), 98.59 s. For the same molecule, the “FtsZ autocorrelation T” value in the data set with FtsZ (0.10 µM FtsA) came to 86.22 s; with FtsZ (0.20 µM FtsA) it was 87.69 s; with FtsZ (0.40 µM FtsA), 64.93 s. Besides, the “Autocorrelation Decay Tau” value with FtsZ (replicate 1) came to 3.11 min; in the data set with FtsZ (replicate 2), 2.08 min; in the data set on FtsZ (replicate 3), 2.02 min.

B1: FtsA R286W (protein)
chain: MIKATDRKLVVGLEIGTAKVAALVGEVLPDGMVNIIGVGSCPSRGMDKGGVNDLESVVKCVQRAIDQAELMADCQISSVYLALSGKHISCQNEIGMVPISEEEVTQEDVENVVHTAKSVRVRDEHRVLHVIPQEYAIDYQEGIKNPVGLSGVRMQAKVHLITCHNDMAKNIVKAVERCGLKVDQLIFAGLASSYSVLTEDERELGVCVVDIGGGTMDIAVYTGGALRHTKVIPYAGNVVTSDIAYAFGTPPSDAEAIKVRHGCALGSIVGKDESVEVPSVGGRPPWSLQRQTLAEVIEPRYTELLNLVNEEILQLQEKLRQQGVKHHLAAGIVLTGGAAQIEGLAACAQRVFHTQVRIGAPLNITGLTDYAQEPYYSTAVGLLHYGKESHLNGEAEVEKRVTASVGSWIKRLNSWLRKEF
modifications: Cy3 or Cy5 at the N-terminus in the labelled form (labelled CLEPTGG peptide conjugated to the 5xGly tag by sortagging); unlabelled protein also used; left off: TwinStrep-SUMO, N-terminal, cleaved | 5x
Consider B1, for which the “oligomeric state in solution” value in data set [1] was “monomeric in solution”. The FtsZ autocorrelation amounted to 160.44 s in the data set with FtsZ (0.1 µM FtsA, Exp. 1); 218.46 s with FtsZ (0.1µM FtsA, Exp. 2); 153.77 s in the data set on FtsZ (0.2 µM FtsA, Exp. 1); 78.66 s with FtsZ (0.2µM FtsA, Exp. 2); 331.53 s in the data set on FtsZ (0.4 µM FtsA, Exp. 1); 146.15 s with FtsZ (0.4µM FtsA, Exp. 2). Also, the FtsZ autocorrelation with FtsZ (0.8 µM FtsA, Exp. 1) turned out to be 113.86 s; in the data set with FtsZ (0.8µM FtsA, Exp. 2) it was 144.33 s. Moreover, the “FtsZ autocorrelation T” value in the data set with FtsZ (0.10 µM FtsA) turned out to be 194.36 s; with FtsZ (0.20 µM FtsA), 136.59 s; in the data set with FtsZ (0.40 µM FtsA), 186.04 s. Moreover, the “Autocorrelation Decay Tau” value turned out to be 4.55 min with FtsZ (replicate 1), 8.41 min in the data set on FtsZ (replicate 2) and 7.40 min in the data set with FtsZ (replicate 3).
